These results are taken from patent US20250276075A1, “METHODS OF TREATING AXL-EXPRESSING CANCERS WITH ANTI-AXL ANTIBODIES, ANTIBODY FRAGMENTS AND THEIR IMMUNOCONJUGATES” (BIOATLA, INC., priority 2020, published 2025).

Substitutions are numbered along the chain they refer to. Names and notes keep the numbering of the source.

The chains are these.
T1: Axl (Homo sapiens, UniProt P30530)
T1 sequence (P30530 26-451 limits assumed): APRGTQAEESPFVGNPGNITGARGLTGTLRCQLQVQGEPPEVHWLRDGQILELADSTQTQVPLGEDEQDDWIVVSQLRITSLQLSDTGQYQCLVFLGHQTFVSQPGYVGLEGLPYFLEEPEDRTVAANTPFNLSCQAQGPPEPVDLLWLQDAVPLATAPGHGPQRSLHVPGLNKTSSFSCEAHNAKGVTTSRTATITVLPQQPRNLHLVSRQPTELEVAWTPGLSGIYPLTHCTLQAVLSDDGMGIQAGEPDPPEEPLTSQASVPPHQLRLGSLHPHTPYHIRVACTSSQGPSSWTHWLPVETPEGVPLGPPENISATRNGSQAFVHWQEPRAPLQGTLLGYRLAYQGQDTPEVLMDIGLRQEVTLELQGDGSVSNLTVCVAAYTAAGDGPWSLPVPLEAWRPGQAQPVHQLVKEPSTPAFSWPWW

B1: LC-P095T (antibody, V domains shown)
VH: EVQLVQSGAEVKKPGATVKISCKVSGYSFTGHTMNWIRQPPGKGLEWIGLIKPSNGGTSYNQKFKGRVTISADKSISTAYLQWSSLKASDTAMYYCAHGHYESYFAMDYWGQGTLVTVSS
VL: DIQMTQSPSSLSASVGDRVTITCKASQDVSSAVAWYQQKPGQAPRLLIYWASTRHTGVPSRFSGSGSGTEFTLTISSLQPDDFATYYCQEHFSTTLTFGQGTKVEIK
B2: HC-S103Q (antibody, V domains shown)
VH: B1 VH with S103Q
VL: B1 VL with T95P
B3: HC-Y101N (antibody, V domains shown)
VH: B1 VH with Y101N
VL: B1 VL with T95P
B4: HC-E102L (antibody, V domains shown)
VH: B1 VH with E102L
VL: B1 VL with T95P
B5: HC-H100E (antibody, V domains shown)
VH: B1 VH with H100E
VL: B1 VL with T95P
B6: HC-H100R (antibody, V domains shown)
VH: B1 VH with H100R
VL: B1 VL with T95P
B7: HC-H100D (antibody, V domains shown)
VH: B1 VH with H100D
VL: B1 VL with T95P
B8: LC-P095V (antibody, V domains shown)
VH: B1 VH
VL: B1 VL with T95V
B9: HC-E102Y (antibody, V domains shown)
VH: B1 VH with E102Y
VL: B1 VL with T95P
B10: LC-P095W (antibody, V domains shown)
VH: B1 VH
VL: B1 VL with T95W
B11: HC-S103M (antibody, V domains shown)
VH: B1 VH with S103M
VL: B1 VL with T95P
B12: HC-Y104C (antibody, V domains shown)
VH: B1 VH with Y104C
VL: B1 VL with T95P
B13: LC-T097I (antibody, V domains shown)
VH: B1 VH
VL: B1 VL with T95P, T97I
B14: HC-S103N (antibody, V domains shown)
VH: B1 VH with S103N
VL: B1 VL with T95P
B15: HC-S103D (antibody, V domains shown)
VH: B1 VH with S103D
VL: B1 VL with T95P
B16: LC-L096R (antibody, V domains shown)
VH: B1 VH
VL: B1 VL with T95P, L96R
B17: HC-H100W (antibody, V domains shown)
VH: B1 VH with H100W
VL: B1 VL with T95P
B18: HC-E102V (antibody, V domains shown)
VH: B1 VH with E102V
VL: B1 VL with T95P
B19: HC-Y104E (antibody, V domains shown)
VH: B1 VH with Y104E
VL: B1 VL with T95P
B20: HC-H100P (antibody, V domains shown)
VH: B1 VH with H100P
VL: B1 VL with T95P
B21: HC-S059T (antibody, V domains shown)
VH: B1 VH with S59T
VL: B1 VL with T95P

In the first experiment the target is Axl (UniProt P30530). The experiment in a line: ELISA, 1:3 dilution.
Settings: not given
Turning to B1, the Affinity ELISA CPE mutant ratio (1:3, pH 6.0/7.4) was determined as 2.5.
Turning to B2, the Affinity ELISA CPE mutant ratio (1:3, pH 6.0/7.4) came out at 0.912.
As to B3, the Affinity ELISA CPE mutant ratio (1:3, pH 6.0/7.4) turned out to be 2.17.
For B4, the Affinity ELISA CPE mutant ratio (1:3, pH 6.0/7.4) amounted to 3.27.
Still for that read-out and setting: the figure for B5 is 2.77.
For the molecule B6, the Affinity ELISA CPE mutant ratio (1:3, pH 6.0/7.4) amounted to 1.88.
For the molecule B7, the Affinity ELISA CPE mutant ratio (1:3, pH 6.0/7.4) was found to be 2.42.
Consider B8, for which the Affinity ELISA CPE mutant ratio (1:3, pH 6.0/7.4) amounted to 1.87.
With B9, the Affinity ELISA CPE mutant ratio (1:3, pH 6.0/7.4) was 2.61.
Consider B10, for which the Affinity ELISA CPE mutant ratio (1:3, pH 6.0/7.4) amounted to 2.15.
With B11, the Affinity ELISA CPE mutant ratio (1:3, pH 6.0/7.4) stood at 1.78.
Still for that read-out and setting: the figure for B12 is 1.84; for B13 it is 3.09.
As for B14, the Affinity ELISA CPE mutant ratio (1:3, pH 6.0/7.4) was 1.07.
As for B15, the Affinity ELISA CPE mutant ratio (1:3, pH 6.0/7.4) amounted to 4.24.
Take B16: the Affinity ELISA CPE mutant ratio (1:3, pH 6.0/7.4) worked out at 2.88.
Turning to B17, the Affinity ELISA CPE mutant ratio (1:3, pH 6.0/7.4) is 4.94.
With B18, the Affinity ELISA CPE mutant ratio (1:3, pH 6.0/7.4) turned out to be 1.93.
In the case of B19, the Affinity ELISA CPE mutant ratio (1:3, pH 6.0/7.4) turned out to be 1.32.
Still for that read-out and setting: the figure for B20 is 2.58; for B21 it is 1.02.

For a further experiment, the target named is Axl (UniProt P30530). The experiment in a line: ELISA, 1:9 dilution.
Settings: not given
In general terms: ELISA stands for enzyme-linked immunosorbent assay.
B1: the Affinity ELISA CPE mutant ratio (1:9, pH 6.0/7.4) was 2.09.
Take B2: the Affinity ELISA CPE mutant ratio (1:9, pH 6.0/7.4) was 2.26.
In the case of B3, the Affinity ELISA CPE mutant ratio (1:9, pH 6.0/7.4) was determined as 2.91.
On the same count and under the same terms, the figure for B4 is 2.7; for B5 it is 3.62.
Turning to B6, the Affinity ELISA CPE mutant ratio (1:9, pH 6.0/7.4) came out at 2.51.
For B7, the Affinity ELISA CPE mutant ratio (1:9, pH 6.0/7.4) was 3.09.
Still for that read-out and setting: the figure for B8 is 2.13; for B9 it is 1.99; for B10 it is 2.26.
Take B11: the Affinity ELISA CPE mutant ratio (1:9, pH 6.0/7.4) worked out at 1.81.
For the molecule B12, the Affinity ELISA CPE mutant ratio (1:9, pH 6.0/7.4) is 1.74.
On the same count and under the same terms, the figure for B13 is 4.05.
With B14, the Affinity ELISA CPE mutant ratio (1:9, pH 6.0/7.4) stood at 3.18.
With B15, the Affinity ELISA CPE mutant ratio (1:9, pH 6.0/7.4) is 2.23.
For B16, the Affinity ELISA CPE mutant ratio (1:9, pH 6.0/7.4) came out at 2.18.
For the molecule B17, the Affinity ELISA CPE mutant ratio (1:9, pH 6.0/7.4) is 5.91.
B18: the Affinity ELISA CPE mutant ratio (1:9, pH 6.0/7.4) came to 2.51.
Consider B19, for which the Affinity ELISA CPE mutant ratio (1:9, pH 6.0/7.4) amounted to 1.8.
Regarding B20, the Affinity ELISA CPE mutant ratio (1:9, pH 6.0/7.4) worked out at 1.18.
As to B21, the Affinity ELISA CPE mutant ratio (1:9, pH 6.0/7.4) turned out to be 1.93.

In a further experiment the target is T1, Axl. The experiment in a line: Affinity ELISA of CPE mutant antibodies for binding to Axl at pH 6.0 over pH 7.4. Conditions: heavy chain variable region mutants; 1:3 dilution. The method in brief:
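Single-point mutant anti-Axl antibody library (CPE) screened by ELISA for binding at pH 6.0 versus pH 7.4, at 1:3 and 1:9 antibody dilutions, in serum with FLAG-tag detection and carbonate (Krebs-Ringer) buffer. Selection criterion: pH 6.0/pH 7.4 binding ratio ≥1.5 at either dilution.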
In the case of B2, the “Affinity ELISA CPE mutant ratio (1:3, pH 6.0/7.4)” value is 0.912.
Regarding B3, the “Affinity ELISA CPE mutant ratio (1:3, pH 6.0/7.4)” value was 2.174.
The same measure, in the same setting: the figure for B4 is 3.266.
Turning to B5, the “Affinity ELISA CPE mutant ratio (1:3, pH 6.0/7.4)” value is listed as 2.775.
As for B6, the “Affinity ELISA CPE mutant ratio (1:3, pH 6.0/7.4)” value came out at 1.877.
On the same count and under the same terms, the figure for B7 is 2.416; for B9 it is 2.610.
As to B11, the “Affinity ELISA CPE mutant ratio (1:3, pH 6.0/7.4)” value was found to be 1.784.
For B12, the “Affinity ELISA CPE mutant ratio (1:3, pH 6.0/7.4)” value is 1.845.
Take B14: the “Affinity ELISA CPE mutant ratio (1:3, pH 6.0/7.4)” value is 1.075.
B15: the “Affinity ELISA CPE mutant ratio (1:3, pH 6.0/7.4)” value is recorded as 4.237.
Turning to B17, the “Affinity ELISA CPE mutant ratio (1:3, pH 6.0/7.4)” value came out at 4.937.
On the same count and under the same terms, the figure for B18 is 1.931.
Same read-out and setting: the figure for B19 is 1.321; for B20 it is 2.575.
As to B21, the “Affinity ELISA CPE mutant ratio (1:3, pH 6.0/7.4)” value is reported as 1.021.

Staying with this experiment, now noted: heavy chain variable region mutants; 1:9 dilution.
Take B2: the “Affinity ELISA CPE mutant ratio (1:9, pH 6.0/7.4)” value is recorded as 2.256.
B3: the “Affinity ELISA CPE mutant ratio (1:9, pH 6.0/7.4)” value was 2.907.
Turning to B4, the “Affinity ELISA CPE mutant ratio (1:9, pH 6.0/7.4)” value was 2.698.
For the molecule B5, the “Affinity ELISA CPE mutant ratio (1:9, pH 6.0/7.4)” value amounted to 3.623.
In the case of B6, the “Affinity ELISA CPE mutant ratio (1:9, pH 6.0/7.4)” value is on record as 2.507.
In the case of B7, the “Affinity ELISA CPE mutant ratio (1:9, pH 6.0/7.4)” value is recorded as 3.094.
For the molecule B9, the “Affinity ELISA CPE mutant ratio (1:9, pH 6.0/7.4)” value was 1.990.
For B11, the “Affinity ELISA CPE mutant ratio (1:9, pH 6.0/7.4)” value was 1.806.
With B12, the “Affinity ELISA CPE mutant ratio (1:9, pH 6.0/7.4)” value stood at 1.741.
For B14, the “Affinity ELISA CPE mutant ratio (1:9, pH 6.0/7.4)” value came to 3.179.
Consider B15, for which the “Affinity ELISA CPE mutant ratio (1:9, pH 6.0/7.4)” value is 2.230.
For the molecule B17, the “Affinity ELISA CPE mutant ratio (1:9, pH 6.0/7.4)” value is recorded as 5.908.
For B18, the “Affinity ELISA CPE mutant ratio (1:9, pH 6.0/7.4)” value turned out to be 2.507.
For B19, the “Affinity ELISA CPE mutant ratio (1:9, pH 6.0/7.4)” value was 1.796.
With B20, the “Affinity ELISA CPE mutant ratio (1:9, pH 6.0/7.4)” value turned out to be 1.179.
On to B21, for which the “Affinity ELISA CPE mutant ratio (1:9, pH 6.0/7.4)” value worked out at 1.926.

The same experiment, now with this note: light chain variable region mutants; 1:3 dilution.
For B1, the “Affinity ELISA CPE mutant ratio (1:3, pH 6.0/7.4)” value stood at 2.497.
For the molecule B8, the “Affinity ELISA CPE mutant ratio (1:3, pH 6.0/7.4)” value stood at 1.871.
In the case of B10, the “Affinity ELISA CPE mutant ratio (1:3, pH 6.0/7.4)” value turned out to be 2.148.
As for B13, the “Affinity ELISA CPE mutant ratio (1:3, pH 6.0/7.4)” value came to 3.086.
Regarding B16, the “Affinity ELISA CPE mutant ratio (1:3, pH 6.0/7.4)” value is recorded as 2.876.

Still in this experiment, the particulars now being: light chain variable region mutants; 1:9 dilution.
Take B1: the “Affinity ELISA CPE mutant ratio (1:9, pH 6.0/7.4)” value stood at 2.086.
Take B8: the “Affinity ELISA CPE mutant ratio (1:9, pH 6.0/7.4)” value amounted to 2.132.
Consider B10, for which the “Affinity ELISA CPE mutant ratio (1:9, pH 6.0/7.4)” value was 2.263.
As to B13, the “Affinity ELISA CPE mutant ratio (1:9, pH 6.0/7.4)” value is recorded as 4.049.
Take B16: the “Affinity ELISA CPE mutant ratio (1:9, pH 6.0/7.4)” value amounted to 2.176.
